Data taken from the RNAGym collection of RNA variant scans (doi:10.1093/molbev/msab373).

B1: Azoarcus group I ribozyme (parent)
chain: GUGCCUUGCGCCGGGAAACCACGCAAGGGAUGGUGUCAAAUUCGGCGAAACCUAAGCGCCCGCCCGGGCGUAUGGCAACGCCGAGCCAAGCUUCGGCGCCUGCGCCGAUGAAGGUGUAGAGACUAGACGGCACCCACCUAAGGCAAACGCUAUGGUGAAGGCAUAGUCCAGGGAGUGGCGAAAGUCACACAAACCGG

Variants of: B1
Experiment: reverse-splicing fitness (ratio to wild type); higher = more active; in vitro selection; Mg2+ level not given
How it was run: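 An in vitro group I ribozyme library with randomized positions was T7-transcribed and gel-purified. In triplicate, 10 pmol RNA in EPPS pH 7.5 was reacted with 50 pmoles of a 30-nt RNA substrate for 1 h at 37 °C across several added MgCl2 levels (1–48 mM), then stopped with EDTA. Products were reverse transcribed from a substrate-complementary primer, PCR-amplified and sequenced (HiSeq 4000). Fitness is a variant's read proportion after selection over that before, normalised to wild type.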

Variant	reverse-splicing fitness
GUGCCUUGCGCCGGGAAACCACGCAAGGGAUGGUGUCAAAUUCGGCGAAACCUAAGCGCCCGCCCGGGCGUAUGGCAACGCGGAGCCAAGCUUCGGCGCCUGCGCCGAUGUAGGUGUAGUGACUAGACGGCACCCACCUAAGGCGAACGGUAUGGUGAAGGCAUAGUCAAGGGAGUGGCGAAAGUCACACAAACCGG [C82G A111U A120U A145G C150G C169A]	0.00873
GUGCCUUGCGCCGGGAAACCACGCAAGGGAUGGUGUCAAAUUCGGCGAAACCUAAGCGCCCGCCCGGGCGUAUGGCAACGCGGAGCCAAGCUUCGGCGCCUGCGCCGAUGUAGGUGUAGUGACUAGACGGCACCCACCUAAGGCGAACGGUAUGGUGAAGGCAUAGUCGAGGGAGUGGCGAAAGUCACACAAACCGG [C82G A111U A120U A145G C150G C169G]	0.00714
GUGCCUUGCGCCGGGAAACCACGCAAGGGAUGGUGUCAAAUUCGGCGAAACCUAAGCGCCCGCCCGGGCGUAUGGCAACGCGGAGCCAAGCUUCGGCGCCUGCGCCGAUGUAGGUGUAGUGACUAGACGGCACCCACCUAAGGCGAACGAUAUGGUGAAGGCAUAGUCUAGGGAGGGGCGAAAGUCACACAAACCGG [C82G A111U A120U A145G C150A C169U U176G]	0.00285
GUGCCUUGCGCCGGGAAACCACGCAAGGGAUGGUGUCAAAUUCGGCGAAACCUAAGCGCCCGCCCGGGCGUAUGGCAACGCGGAGCCAAGCUUCGGCGCCUGCGCCGAUGUAGGUGUAGUGACUAGACGGCACCCACCUAAGGCGAACGAUAUGGUGAAGGCAUAGUCUAGGGAGCGGCGAAAGUCACACAAACCGG [C82G A111U A120U A145G C150A C169U U176C]	0.00514
GUGCCUUGCGCCGGGAAACCACGCAAGGGAUGGUGUCAAAUUCGGCGAAACCUAAGCGCCCGCCCGGGCGUAUGGCAACGCGGAGCCAAGCUUCGGCGCCUGCGCCGAUGUAGGUGUAGUGACUAGACGGCACCCACCUAAGGCGAACGAUAUGGUGAAGGCAUAGUCUAGGGAGAGGCGAAAGUCACACAAACCGG [C82G A111U A120U A145G C150A C169U U176A]	0.00402
GUGCCUUGCGCCGGGAAACCACGCAAGGGAUGGUGUCAAAUUCGGCGAAACCUAAGCGCCCGCCCGGGCGUAUGGCAACGCGGAGCCAAGCUUCGGCGCCUGCGCCGAUGUAGGUGUAGUGACUAGACGGCACCCACCUAAGGCGAACGAUAUGGUGAAGGCAUAGUCCAGGGAGUGGCGAAAGUCACACAAACCGG [C82G A111U A120U A145G C150A]	0.0109
GUGCCUUGCGCCGGGAAACCACGCAAGGGAUGGUGUCAAAUUCGGCGAAACCUAAGCGCCCGCCCGGGCGUAUGGCAACGCGGAGCCAAGCUUCGGCGCCUGCGCCGAUGUAGGUGUAGUGACUAGACGGCACCCACCUAAGGCGAACGGUAUGGUGAAGGCAUAGUCCAGGGAGUGGCGAAAGUCACACAAACCGG [C82G A111U A120U A145G C150G]	0.00902
GUGCCUUGCGCCGGGAAACCACGCAAGGGAUGGUGUCAAAUUCGGCGAAACCUAAGCGCCCGCCCGGGCGUAUGGCAACGCGGAGCCAAGCUUCGGCGCCUGCGCCGAUGUAGGUGUAGUGACUAGACGGCACCCACCUAAGGCCAACGCUAUGGUGAAGGCAUAGUCCAGGGAGGGGCGAAAGUCACACAAACCGG [C82G A111U A120U A145C U176G]	0.00404
GUGCCUUGCGCCGGGAAACCACGCAAGGGAUGGUGUCAAAUUCGGCGAAACCUAAGCGCCCGCCCGGGCGUAUGGCAACGCGGAGCCAAGCUUCGGCGCCUGCGCCGAUGUAGGUGUAGUGACUAGACGGCACCCACCUAAGGCCAACGCUAUGGUGAAGGCAUAGUCCAGGGAGAGGCGAAAGUCACACAAACCGG [C82G A111U A120U A145C U176A]	0.00848
GUGCCUUGCGCCGGGAAACCACGCAAGGGAUGGUGUCAAAUUCGGCGAAACCUAAGCGCCCGCCCGGGCGUAUGGCAACGCGGAGCCAAGCUUCGGCGCCUGCGCCGAUGUAGGUGUAGUGACUAGACGGCACCCACCUAAGGCCAACGCUAUGGUGAAGGCAUAGUCCAGGGAGCGGCGAAAGUCACACAAACCGG [C82G A111U A120U A145C U176C]	0.0125
GUGCCUUGCGCCGGGAAACCACGCAAGGGAUGGUGUCAAAUUCGGCGAAACCUAAGCGCCCGCCCGGGCGUAUGGCAACGCGGAGCCAAGCUUCGGCGCCUGCGCCGAUGUAGGUGUAGUGACUAGACGGCACCCACCUAAGGCGAACGAUAUGGUGAAGGCAUAGUCAAGGGAGGGGCGAAAGUCACACAAACCGG [C82G A111U A120U A145G C150A C169A U176G]	0.00334
GUGCCUUGCGCCGGGAAACCACGCAAGGGAUGGUGUCAAAUUCGGCGAAACCUAAGCGCCCGCCCGGGCGUAUGGCAACGCGGAGCCAAGCUUCGGCGCCUGCGCCGAUGUAGGUGUAGUGACUAGACGGCACCCACCUAAGGCGAACGAUAUGGUGAAGGCAUAGUCAAGGGAGAGGCGAAAGUCACACAAACCGG [C82G A111U A120U A145G C150A C169A U176A]	0.00821
GUGCCUUGCGCCGGGAAACCACGCAAGGGAUGGUGUCAAAUUCGGCGAAACCUAAGCGCCCGCCCGGGCGUAUGGCAACGCGGAGCCAAGCUUCGGCGCCUGCGCCGAUGUAGGUGUAGUGACUAGACGGCACCCACCUAAGGCGAACGAUAUGGUGAAGGCAUAGUCAAGGGAGCGGCGAAAGUCACACAAACCGG [C82G A111U A120U A145G C150A C169A U176C]	0.00438
GUGCCUUGCGCCGGGAAACCACGCAAGGGAUGGUGUCAAAUUCGGCGAAACCUAAGCGCCCGCCCGGGCGUAUGGCAACGCGGAGCCAAGCUUCGGCGCCUGCGCCGAUGUAGGUGUAGUGACUAGACGGCACCCACCUAAGGCGAACGAUAUGGUGAAGGCAUAGUCCAGGGAGAGGCGAAAGUCACACAAACCGG [C82G A111U A120U A145G C150A U176A]	0.00769
GUGCCUUGCGCCGGGAAACCACGCAAGGGAUGGUGUCAAAUUCGGCGAAACCUAAGCGCCCGCCCGGGCGUAUGGCAACGCGGAGCCAAGCUUCGGCGCCUGCGCCGAUGUAGGUGUAGUGACUAGACGGCACCCACCUAAGGCGAACGAUAUGGUGAAGGCAUAGUCCAGGGAGCGGCGAAAGUCACACAAACCGG [C82G A111U A120U A145G C150A U176C]	0.00757
